Legend:
[1] = biological target: Aβ monomer (Homo sapiens, UniProt P05067); assay: SPR
[2] = biological target: Aβ protofibrils (Homo sapiens, UniProt P05067); assay: SPR

B1: Gantenerumab (antibody, V domains shown)
VH: QVELVESGGGLVQPGGSLRLSCAASGFTFSSYAMSWVRQAPGKGLEWVSAINASGTRTYYADSVKGRFTISRDNSKNTLYLQMNSLRAEDTAVYYCARGKGNTHKPYGYVRYFDVWGQGTLVTVSS
VL: DIVLTQSPATLSLSPGERATLSCRASQSVSSSYLAWYQQKPGQAPRLLIYGASSRATGVPARFSGSGSGTDFTLTISSLEPEDFATYYCLQIYNMPITFGQGTKVEIK
B1 gave a Kd [1] of 34 µM and a Kd [2] of 0.0008 µM.
